US20250002593A1

Target: membrane cyno IL-36R (cynomolgus)
Assay: binding to cynomolgus IL-36R; the legend and Example 8 say membrane cyno IL-36R on transfected HEK293 cells by FACS, but the y axis on the sheet is OD450 nm; unit taken from the x axis

EC50 [µg/mL]	Binder
0.0132	ANB019 (antibody, V domains shown) VH: QVQLVQSGAEVKKPGASVKVSCKASGYTFTNYWMNWVRQAPRQGLEWMGMFHPTGDVTRLNQKFKDRVTMTRDTSTSTVYMELSSLRSEDTAVYYCARTTSMIIGGFAYWGQGTLVTVSS VL: DIVMTQTPLSLSVTPGQPASISCRSSKSLLHRNAITYFYWYLHKPGQPPQLLIYQMSNLASGVPDRFSGSGSGTDFTLKISRVEAEDVGVYYCAQNLELPLTFGGGTKVEIK
0.0059	REGN14 (antibody, V domains shown) VH: EVQLVESGGDLVQPGRSLRLSCAASGFTFDDYAMHWVRQAPGKGLEWVSVISWNSDVIAYSDSVKGRFTISRDNAKNSLYLQMNSLRTEDTALYYCTKGHKWSFFDYWGQGTLVTVSS VL: EIVLTQSPATLSLSPGERATLSCRASQSISSYLAWYQQKPGQAPRLLIFNVANRATDIPARFSGSGSGTDFTLTISSLEPEDFAVYYCQQRSNWPLTFGGGTKVEIK
0.196	BI655130 (antibody, V domains shown) VH: QVQLVQSGAEVKKPGASVKVSCKASGYSFTSSWIHWVKQAPGQGLEWMGEINPGNVRTNYNENFRNKVTMTVDTSISTAYMELSRLRSDDTAVYYCTVVFYGEPYFPYWGQGTLVTVSS VL: QIVLTQSPGTLSLSPGERATMTCTASSSVSSSYFHWYQQKPGQAPRLWIYRTSRLASGVPDRFSGSGSGTDFTLTISRLEPEDAATYYCHQFHRSPLTFGAGTKLEIK
